Values quoted from earlier work in PMC2774623.

Target: CK2 alpha (Homo sapiens) (UniProt P68400)
Assay: SPR

Sequence of CK2 alpha (Homo sapiens) (P68400 whole entry): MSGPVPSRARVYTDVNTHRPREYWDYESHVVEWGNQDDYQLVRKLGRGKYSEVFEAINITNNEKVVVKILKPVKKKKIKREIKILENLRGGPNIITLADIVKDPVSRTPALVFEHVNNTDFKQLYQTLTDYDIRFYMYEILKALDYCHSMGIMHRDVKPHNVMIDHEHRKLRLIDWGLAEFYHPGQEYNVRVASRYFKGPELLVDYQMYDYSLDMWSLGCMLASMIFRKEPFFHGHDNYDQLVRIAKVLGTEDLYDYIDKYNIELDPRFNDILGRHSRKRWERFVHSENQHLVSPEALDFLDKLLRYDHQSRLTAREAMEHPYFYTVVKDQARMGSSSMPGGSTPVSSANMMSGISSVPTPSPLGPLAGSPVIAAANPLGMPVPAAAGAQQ
Sequence of CK2 beta (P67870 2-215): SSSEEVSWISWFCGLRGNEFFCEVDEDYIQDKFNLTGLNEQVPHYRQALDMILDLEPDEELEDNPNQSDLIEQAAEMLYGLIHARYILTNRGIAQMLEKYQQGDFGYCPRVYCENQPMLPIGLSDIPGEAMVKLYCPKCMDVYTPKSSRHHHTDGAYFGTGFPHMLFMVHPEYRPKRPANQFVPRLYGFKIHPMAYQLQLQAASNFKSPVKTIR

Substance: CK2 beta (from UniProt P67870)
- Kd: 40.8 nM
